From patent publication US20120252742A1 come the findings set out here.

Experiment [1] has as its target SIY peptide on H-2Kb (mouse). Description: value stated in the legend of FIG. 16; method not given.
The target in experiment [2] is SL9 peptide on HLA.A2 of peptide-loaded HLA.A2+ cells (T2) (human immunodeficiency virus; human). Briefly: flow cytometry: SL9 peptide titrated on T2 cells, 100 nM biotinylated scTCR; the reference value is from the literature. (In general: Flow cytometry measures light scatter and fluorescence of single cells or particles in a stream.)
The target is the same in experiment [3]. Description: flow cytometry: T2 cells loaded with 10 uM SL9, titration of biotinylated scTCR, streptavidin:PE.
Experiment [4] has the same target. Briefly: flow cytometry: T2 cells loaded with 10 uM SL9, biotinylated scTCR, streptavidin:PE.
Experiment [5] addresses SIY peptide on H-2Kb (mouse). Briefly: value cited from Chervin et al. 2009 (ref 18); method not given.
Experiment [6] deals with SIY peptide on H-2Kb (mouse). Description: IL-2 release; transduced 58-/- cells, SIY peptide on T2-K^b (FIG. 17); fusion: CD28, CD3ζ, LCK.
For experiment [7], the target named is SIY peptide on K^b of antigen presenting cells (T2-K^b). Briefly: cell-based or functional assay.
The target of experiment [8] is SL9 (HIV-Gag)/HLA.A2 streptavidin:phycoerythrin tetramer (human immunodeficiency virus; human). Briefly: cell-based or functional assay.
Experiment [9] addresses human immunodeficiency virus (HIV) Gag protein (SL9) peptide on HLA-A*02:01 (human). Briefly: SL9 peptide titrated on T2 cells, stained with 100 nM multi-biotinylated scTCR (FIG. 11C); soluble, other.

As usually defined, the Kd is the constant that tells how readily two partners part at equilibrium. Consider 2C (full-length αβ TCR), for which the equilibrium dissociation constant (Kd) in experiment [1] came out at 30 µM.

One may read the EC50 as the midpoint of the concentration-response curve. High values mean a need for much substance, low ones an effect from little substance. Turning to “soluble, biotinylated 868-Z11 single-chain TCR expressed in E. coli (pET28a) and refolded”, the fold improvement in limit of detection relative to the full-length 868 TCR variant described by Varela-Rohena et al in [2] was 5 fold. The EC50 in experiment [3] is 0.004 µM. In addition, the lowest scTCR concentration at which peptide loaded cells were detected in experiment [4] is 0.1 nM. With m33 (full-length αβ TCR), the Kd in [5] is 0.016 µM; in [1], 0.03 µM.

Turning to “m33 scTCR with 2C-T7 stabilizing mutations”, the lowest activating peptide concentration in experiment [6] was 1 nM. “m33 scTCR (Vα-linker-Vβ) fused to CD28, CD3ζ, LCK, on the surface of 58-/- T cell hybridoma” had an IL-2 release, lowest SIY peptide concentration that activates in [7] of 1 nM. “868-Z11 scTCR (Vβ-linker-Vα) fused to CD28, CD3ζ, LCK, on the surface of transduced T cells” had a T cell activation by plate-bound pepMHC tetramer, EC50 in experiment [8] of 0.004 µM. In the case of 868-Z11, the lowest SL9 peptide concentration detected in experiment [9] is 10 nM.
